The values that follow come from article PMC6771040, “Bispecific GRPR-Antagonistic Anti-PSMA/GRPR Heterodimer for PET and SPECT Diagnostic Imaging of Prostate Cancer” (Cancers, 2019).

Data set [1] deals with PC3-PIP xenografts (PSMA and GRPR expressing). Nature of the data set: in vivo. Also noted: species or system BALB/c nu/nu mice. The conditions noted are these: female, BALB/c nu/nu, mouse, iv, 50 pmol/mouse. The method, then: (§1) All animal experiments were planned and performed in accordance with the Swedish national legislation on the protection of laboratory animals and the study plans were approved by the Ethics Committee for Animal Research in Uppsala. Euthanasia was performed by the intraperitoneal injection of a ketamine-xylazine (Ketalar-Rompun) solution (200 mg/kg ketamine/Ketalar and 20 mg/kg xylazine/Rompun), and all efforts were made to minimize suffering. Prior to implantation, female outbred BALB/c nu/nu mice (n = 30) were quarantined for 1 week. The average animal weight at the time of the experiment was 16 ± 1 g. Xenografts expressing both PSMA and GRPR were established by the subcutaneous injection of ~0.8 × 10^7 PC3-PIP cells/mouse. Tumors were grown for 7 days and the average tumor weight at the time of the experiment was 0.3 ± 0.1 g. Before the experiments, animals were randomized into groups of four. Blood, salivary glands, lung, liver, spleen, pancreas, stomach, small intestines, kidneys, muscle, bone, and tumor samples were collected for radioactivity measurements. The gastrointestinal tract with content and the rest of the carcass were also collected. The activity of samples was measured together with the injection standard.
(§2) To evaluate the biodistribution over time, three groups of mice were intravenously co-injected through the tail vein with ^111In-6 and ^68Ga-6 (300 kBq for ^68Ga-6 and 40 kBq for ^111In-6) and sacrificed 1, 3, and 24 h pi. The total injected peptide mass was adjusted to 50 pmol/mouse.

A short description of the next data set: in vivo. Also noted: species or system BALB/c nu/nu mice. Conditions: female, BALB/c nu/nu, mouse, iv, 50 pmol/mouse, total radioactivity, Tumor-to-organ ratio. The method, then: as §1, §2
Data set [2] concerns PSMA. The conditions noted are these: 1 h pi; cited from earlier work.
Data set [3] concerns the target T1, PSMA (Homo sapiens, UniProt Q04609).
T1 construct: expressed in transfected cells; host or cells: PC3-PIP cells (PC-3 derived, kept under puromycin selection; obtained from Dr. Warren Heston, Cleveland Clinic)
As to the kind of experiment: Competitive binding assay (IC50) towards PSMA on PC3-PIP cells. The method, then: (§3) The half-maximal inhibitory concentration (IC50) values towards PSMA and GRPR were determined for ^natIn-6 using PC3-PIP cells. ^111In-PSMA-617 was used as a displacement radioligand for PSMA and ^111In-DOTA-PEG2-RM26 was used for GRPR, respectively. Due to the presence of both targets on PC3-PIP cells, in each experiment, the secondary target was blocked with either 1 mM solution of NOTA-PEG6-RM26 or 2 mM PSMA-11. For comparison, the IC50 values were determined for the corresponding monomers towards PSMA and GRPR under the same experimental conditions. Briefly, cell monolayers were incubated with the radioligand (1 nM) at 4 °C for 5 h in the presence of increasing concentrations of ^natIn-loaded conjugates (0–540 nM for GRPR-targeting analogs, and 0–7500 nM for PSMA-targeting, respectively). Following incubation, cells were collected and the cell-associated radioactivity was measured in an automated gamma-counter. The IC50 values were calculated by nonlinear regression using GraphPad Prism software (GraphPad Software Inc., San Diego, CA, USA).

In the next data set the target is GRPR (Homo sapiens, UniProt P30550). The method, then: as §3
Chain of GRPR (P30550 whole entry): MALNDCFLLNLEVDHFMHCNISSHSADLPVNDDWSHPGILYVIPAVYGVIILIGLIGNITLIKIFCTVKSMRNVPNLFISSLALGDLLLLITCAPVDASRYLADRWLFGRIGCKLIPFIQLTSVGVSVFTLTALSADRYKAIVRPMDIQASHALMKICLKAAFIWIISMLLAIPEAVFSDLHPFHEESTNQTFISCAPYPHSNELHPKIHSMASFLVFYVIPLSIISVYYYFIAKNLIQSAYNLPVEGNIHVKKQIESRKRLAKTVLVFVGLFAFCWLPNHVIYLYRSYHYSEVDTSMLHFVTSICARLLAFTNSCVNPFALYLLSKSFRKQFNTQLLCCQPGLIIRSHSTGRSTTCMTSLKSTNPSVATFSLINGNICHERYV

T1 sequence (Q04609 whole entry): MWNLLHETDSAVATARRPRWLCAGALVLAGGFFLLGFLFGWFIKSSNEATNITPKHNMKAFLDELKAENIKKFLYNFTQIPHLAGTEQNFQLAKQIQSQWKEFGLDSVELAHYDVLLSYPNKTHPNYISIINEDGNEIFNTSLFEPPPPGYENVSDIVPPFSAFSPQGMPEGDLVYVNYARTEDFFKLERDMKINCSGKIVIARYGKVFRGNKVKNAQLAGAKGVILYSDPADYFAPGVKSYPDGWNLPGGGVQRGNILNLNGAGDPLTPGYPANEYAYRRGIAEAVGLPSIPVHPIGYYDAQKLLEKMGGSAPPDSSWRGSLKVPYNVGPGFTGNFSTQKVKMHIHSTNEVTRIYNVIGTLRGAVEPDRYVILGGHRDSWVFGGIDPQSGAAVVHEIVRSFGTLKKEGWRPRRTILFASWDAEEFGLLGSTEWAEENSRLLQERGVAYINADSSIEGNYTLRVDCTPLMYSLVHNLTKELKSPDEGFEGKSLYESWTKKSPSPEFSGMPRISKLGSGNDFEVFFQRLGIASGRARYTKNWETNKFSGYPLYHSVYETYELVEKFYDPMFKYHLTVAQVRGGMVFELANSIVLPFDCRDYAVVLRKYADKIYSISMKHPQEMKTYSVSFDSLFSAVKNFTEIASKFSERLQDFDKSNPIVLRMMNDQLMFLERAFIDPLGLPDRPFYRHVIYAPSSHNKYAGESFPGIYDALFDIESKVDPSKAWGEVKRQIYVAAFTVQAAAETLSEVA

On to `CC(C)C[C@H](NC(=O)C[C@H](O)[C@H](CC(C)C)NC(=O)[C@H](Cc1c[nH]cn1)NC(=O)CNC(=O)[C@@H](NC(=O)[C@H](C)NC(=O)[C@H](Cc1c[nH]c2ccccc12)NC(=O)[C@H](CCC(N)=O)NC(=O)[C@@H](Cc1ccccc1)NC(=O)CCOCCOCCOCCOCCOCCOCCNC(=O)[C@H](CCCCNC(=O)CN1CCN(CC(=O)O)CCN(CC(=O)O)CC1)NC(=O)CCCCCCCNC(=O)CC[C@H](NC(=O)N[C@@H](CCC(=O)O)C(=O)O)C(=O)O)C(C)C)C(N)=O` [68Ga-6, metal not drawn], for which, in data set [1] (1 h), the “Tumor-to-organ ratio, Blood” value was 24±3; the “Tumor-to-organ ratio, Bone” value is reported as 30±11; the “Tumor-to-organ ratio, Kidneys” value is on record as 1.2±0.1; the “Tumor-to-organ ratio, Liver” value worked out at 5.9±0.9. Further, in data set [1] (1 h), the “Tumor-to-organ ratio, Lung” value was 15±3; the “Tumor-to-organ ratio, Muscle” value stood at 78±28; the “Tumor-to-organ ratio, Pancreas” value is reported as 4.4±0.6; the “Tumor-to-organ ratio, Salivary glands” value is recorded as 43±8. In data set [1] (1 h), the “Tumor-to-organ ratio, Small intestine” value is 11±3; the “Tumor-to-organ ratio, Spleen” value came to 16±4; the “Tumor-to-organ ratio, Stomach” value is recorded as 10±4. Further, in data set [1] (3 h), the “Tumor-to-organ ratio, Blood” value was found to be 44±6; the “Tumor-to-organ ratio, Bone” value came to 67±21; the “Tumor-to-organ ratio, Kidneys” value is reported as 0.9±0.2; the “Tumor-to-organ ratio, Liver” value is on record as 4±1. For the same compound, in data set [1] (3 h), the “Tumor-to-organ ratio, Lung” value was found to be 28±17; the “Tumor-to-organ ratio, Muscle” value came to 128±57; the “Tumor-to-organ ratio, Pancreas” value stood at 18±6; the “Tumor-to-organ ratio, Salivary glands” value is listed as 43±8. Besides, in data set [1] (3 h), the “Tumor-to-organ ratio, Small intestine” value amounted to 33±27; the “Tumor-to-organ ratio, Spleen” value was 11±1; the “Tumor-to-organ ratio, Stomach” value was 45±39.

Regarding `CC(C)C[C@H](NC(=O)C[C@H](O)[C@H](CC(C)C)NC(=O)[C@H](Cc1c[nH]cn1)NC(=O)CNC(=O)[C@@H](NC(=O)[C@H](C)NC(=O)[C@H](Cc1c[nH]c2ccccc12)NC(=O)[C@H](CCC(N)=O)NC(=O)[C@@H](Cc1ccccc1)NC(=O)CCOCCOCCOCCOCCOCCOCCNC(=O)[C@H](CCCCNC(=O)CN1CCN(CC(=O)O)CCN(CC(=O)O)CC1)NC(=O)CCCCCCCNC(=O)CC[C@H](NC(=O)N[C@@H](CCC(=O)O)C(=O)O)C(=O)O)C(C)C)C(N)=O` [111In-6, metal not drawn], in data set [1] (1 h), the “Tumor-to-organ ratio, Bone” value came to 75±50. In addition, the “Tumor-to-organ ratio, Liver” value in data set [1] (1 h) is 22±4; in data set [1] (3 h), 20±2. The entries for the “Tumor-to-organ ratio, Lung” value in data set [1] (1 h) and in data set [1] (3 h) were 32±3 and 64±30, respectively. Further, the “Tumor-to-organ ratio, Spleen” value was 44±6 in data set [1] (1 h) and 59±16 in data set [1] (3 h). For the same compound, the “Tumor-to-organ ratio, Blood” value in data set [1] (3 h) is 115±13. Further, the “Tumor-to-organ ratio, Salivary glands” value in data set [1] (3 h) is 93±10. In addition, the tissue to tissue ratio at 1 h in the data set “in vivo” (Blood) amounted to 30 ± 4; in the data set “in vivo” (Kidneys), 1.2 ± 0.2; in “in vivo” (Muscle), 101 ± 25; in the data set “in vivo” (Pancreas), 3.5 ± 0.8; in the data set “in vivo” (Salivary glands), 72 ± 13; in the data set “in vivo” (Small intestine), 12 ± 4. Also, in “in vivo” (Stomach), the tissue to tissue ratio at 1 h worked out at 10 ± 3. Moreover, the tissue to tissue ratio at 24 h in the data set “in vivo” (Blood) came to 192 ± 66; in “in vivo” (Bone), 19 ± 15; in the data set “in vivo” (Kidneys), 0.6 ± 0.1; in “in vivo” (Liver), 4.8 ± 0.8; in the data set “in vivo” (Lung), 34 ± 11; in “in vivo” (Muscle), 72 ± 59. The tissue to tissue ratio at 24 h in the data set “in vivo” (Pancreas) amounted to 16 ± 2; in “in vivo” (Salivary glands) it was 26 ± 4; in the data set “in vivo” (Small intestine), 27 ± 6; in “in vivo” (Spleen), 30 ± 16; in the data set “in vivo” (Stomach), 61 ± 52. The tissue to tissue ratio at 3 h in the data set “in vivo” (Bone) amounted to 52 ± 22; in the data set “in vivo” (Kidneys), 1.4 ± 0.2; in the data set “in vivo” (Muscle) it was 210 ± 90; in the data set “in vivo” (Pancreas), 21 ± 1; in “in vivo” (Small intestine), 42 ± 9; in the data set “in vivo” (Stomach) it was 29 ± 12.

Regarding `O=C([O-])CN(CCN(CC(=O)[O-])Cc1cc(CCC(=O)NCCCCCC(=O)NCCCC[C@H](NC(=O)N[C@@H](CCC(=O)O)C(=O)O)C(=O)O)ccc1[O-])Cc1cc(CCC(=O)O)ccc1[O-].[68Ga+3].[OH3+]` [^68Ga-PSMA-11], the “activity uptake in the kidneys relative to tumors” value with PSMA [2] is 20 fold.

As to `O=C([O-])CN1CCN(CC(=O)[O-])CCN(CC(=O)NC[C@H]2CC[C@H](C(=O)N[C@@H](Cc3ccc4ccccc4c3)C(=O)NCCCC[C@H](NC(=O)N[C@@H](CCC(=O)O)C(=O)O)C(=O)O)CC2)CCN(CC(=O)[O-])CC1.[68Ga+3]` [^68Ga-PSMA-617], the “activity uptake in the kidneys relative to tumors” value in the data set on PSMA [2] is 8 fold.

Take `CC(C)C[C@H](NC(=O)C[C@H](O)[C@H](CC(C)C)NC(=O)[C@H](Cc1c[nH]cn1)NC(=O)CNC(=O)[C@@H](NC(=O)[C@H](C)NC(=O)[C@H](Cc1c[nH]c2ccccc12)NC(=O)[C@H](CCC(N)=O)NC(=O)[C@@H](Cc1ccccc1)NC(=O)CCOCCOCCOCCOCCOCCOCCNC(=O)[C@H](CCCCNC(=O)CN1CCN(CC(=O)O)CCN(CC(=O)O)CC1)NC(=O)CCCCCCCNC(=O)CC[C@H](NC(=O)N[C@@H](CCC(=O)O)C(=O)O)C(=O)O)C(C)C)C(N)=O` [compound 6, Glu-Urea-Glu-Aoc-Lys(NOTA)-(PEG)6-RM26]: the “fold change of IC50 for PSMA, heterodimer vs monomer” value at PSMA [3] (dimerization effect) came out at 5 fold.

`CC(C)C[C@H](NC(=O)C[C@H](O)[C@H](CC(C)C)NC(=O)[C@H](Cc1c[nH]cn1)NC(=O)CNC(=O)[C@@H](NC(=O)[C@H](C)NC(=O)[C@H](Cc1c[nH]c2ccccc12)NC(=O)[C@H](CCC(N)=O)NC(=O)[C@@H](Cc1ccccc1)NC(=O)CCOCCOCCOCCOCCOCCOCCNC(=O)[C@H](CCCCNC(=O)CN1CCN(CC(=O)O)CCN(CC(=O)O)CC1)NC(=O)CCCCCCCNC(=O)CC[C@H](NC(=O)N[C@@H](CCC(=O)O)C(=O)O)C(=O)O)C(C)C)C(N)=O` [natIn-6, metal not drawn]: the IC50 on PSMA [3] (read-out: IC50 towards PSMA, PC3-PIP cells, 4 °C, 5 h, radioligand 111In-PSMA-617, GRPR blocked, natIn-loaded conjugates) worked out at 824 ± 230 nM; at GRPR (read-out: IC50 towards GRPR, PC3-PIP cells, 4 °C, 5 h, PSMA blocked, natIn-loaded conjugates) it was 4 ± 1 nM. The “fold change of IC50 for GRPR, heterodimer vs monomer” value on GRPR (dimerization effect) is 10 fold.

The IC50 is the concentration that inhibits the measured activity by half.
